In publication PMC10901769, “An anti-CRISPR that represses its own transcription while blocking Cas9-target DNA binding”:

Tests used:
[1] = biological target: full-length AcrIIA15 R2A mutant (Staphylococcus (identified from Staphylococcus genomes)); assay: SEC; dimerization state of wild-type or mutated AcrIIA15; Superdex 75, 20 mM Tris-HCl pH 7.5, 0.5 M NaCl
[2] = biological target: full-length AcrIIA15 (Staphylococcus (identified from Staphylococcus genomes)); assay: as above
[3] = biological target: full-length AcrIIA15 (Staphylococcus (identified from Staphylococcus genomes)); assay: crystal structure; free full-length AcrIIA15; 2.34 Å
[4] = biological target: full-length AcrIIA15 (Staphylococcus (identified from Staphylococcus genomes)); assay: crystal structure; AcrIIA15 (full-length or NTD) with IR1 promoter DNA, mixed at 2:1.1 in 20 mM Tris pH 7.5, 100 mM NaCl; 3.15 Å and 3.10 Å
[5] = biological target: full-length AcrIIA15 (Staphylococcus (identified from Staphylococcus genomes)); assay: cryo-EM structure; SaCas9-sgRNA-AcrIIA15-IR1 quaternary complex, mixed at 1:1.1:0.9:0.6, purified by SEC in 20 mM Tris pH 7.5, 0.1 M NaCl; 3.82 Å
[6] = biological target: N-terminal domain of AcrIIA15 (AcrIIA15^NTD) (Staphylococcus (identified from Staphylococcus genomes)); assay: crystal structure; AcrIIA15 (full-length or NTD) with IR1 promoter DNA, mixed at 2:1.1 in 20 mM Tris pH 7.5, 100 mM NaCl; 3.15 Å and 3.10 Å
AcrIIA15 R2A/L44A = biological target: T1, AcrIIA15 R2A/L44A (UniProt PDB:8JG9_3 1-171, R3A;L45A); assay: EMSA; Promoter EMSA: 20 mM Tris-HCl pH 7.5, 300 mM NaCl, on ice/4 C, 30 min; SaCas9 EMSA: 20 mM Tris pH 7.5, 200 mM NaCl, 10 mM EDTA, RT; SPR: 10 mM Na2HPO4, 2 mM KH2PO4, 0.3 M NaCl; SEC: 20 mM Tris pH 7.5, 300 mM NaCl; conditions: protein: recombinant; tags: C-terminal His6; label: 5'-Cy3 on strand 1; blunt
T1 sequence: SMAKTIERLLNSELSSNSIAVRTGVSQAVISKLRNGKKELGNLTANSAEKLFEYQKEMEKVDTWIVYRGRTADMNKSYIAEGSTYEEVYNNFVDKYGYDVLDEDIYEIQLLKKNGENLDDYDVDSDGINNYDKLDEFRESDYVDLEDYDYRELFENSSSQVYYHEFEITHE

AcrIIA15 K31A = biological target: T2, AcrIIA15 K31A (UniProt PDB:8JG9_3 1-171, K32A); assay: as above; conditions: protein: recombinant; tags: C-terminal His6; chain copies: 2; label: 5'-Cy3 on strand 1; blunt
T2 sequence: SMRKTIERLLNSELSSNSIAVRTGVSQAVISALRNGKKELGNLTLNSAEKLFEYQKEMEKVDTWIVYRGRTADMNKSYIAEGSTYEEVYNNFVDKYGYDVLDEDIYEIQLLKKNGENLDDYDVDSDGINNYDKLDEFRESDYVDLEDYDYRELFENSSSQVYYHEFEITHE

AcrIIA15 K37A = biological target: T3, AcrIIA15 K37A (UniProt PDB:8JG9_3 1-171, K38A); assay: as above; conditions: protein: recombinant; tags: C-terminal His6; chain copies: 2; label: 5'-Cy3 on strand 1; blunt
T3 sequence: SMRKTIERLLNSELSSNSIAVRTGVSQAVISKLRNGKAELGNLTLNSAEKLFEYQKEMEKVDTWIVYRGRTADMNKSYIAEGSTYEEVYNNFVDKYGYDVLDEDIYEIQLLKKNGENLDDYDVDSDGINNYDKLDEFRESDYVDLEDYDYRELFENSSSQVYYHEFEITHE

AcrIIA15 L44A = biological target: T4, AcrIIA15 L44A (UniProt PDB:8JG9_3 1-171, L45A); assay: as above; conditions: protein: recombinant; tags: C-terminal His6; label: 5'-Cy3 on strand 1; blunt
T4 sequence: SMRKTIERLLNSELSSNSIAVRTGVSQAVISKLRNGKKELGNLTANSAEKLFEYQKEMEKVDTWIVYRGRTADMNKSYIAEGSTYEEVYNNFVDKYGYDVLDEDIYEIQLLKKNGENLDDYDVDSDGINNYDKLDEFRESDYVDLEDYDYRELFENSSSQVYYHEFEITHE

AcrIIA15 full-length [7] = biological target: T5, AcrIIA15 full-length (UniProt PDB:8JG9_3 1-171); assay: SPR; Promoter EMSA: 20 mM Tris-HCl pH 7.5, 300 mM NaCl, on ice/4 C, 30 min; SaCas9 EMSA: 20 mM Tris pH 7.5, 200 mM NaCl, 10 mM EDTA, RT; SPR: 10 mM Na2HPO4, 2 mM KH2PO4, 0.3 M NaCl; SEC: 20 mM Tris pH 7.5, 300 mM NaCl; conditions: protein: recombinant; tags: C-terminal His6, or His6-Sumo removed by Ulp1; chain copies: 2; blunt
T5 sequence: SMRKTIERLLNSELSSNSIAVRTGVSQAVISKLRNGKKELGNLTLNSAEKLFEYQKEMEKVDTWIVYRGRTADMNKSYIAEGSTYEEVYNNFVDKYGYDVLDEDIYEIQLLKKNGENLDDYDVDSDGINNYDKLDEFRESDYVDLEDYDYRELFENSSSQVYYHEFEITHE

AcrIIA15 NTD = biological target: T6, AcrIIA15 NTD (UniProt PDB:8JFR_1 1-63); assay: crystal structure; Promoter EMSA: 20 mM Tris-HCl pH 7.5, 300 mM NaCl, on ice/4 C, 30 min; SaCas9 EMSA: 20 mM Tris pH 7.5, 200 mM NaCl, 10 mM EDTA, RT; SPR: 10 mM Na2HPO4, 2 mM KH2PO4, 0.3 M NaCl; SEC: 20 mM Tris pH 7.5, 300 mM NaCl; conditions: protein: recombinant; tags: C-His6 or His6-Sumo (removed); chain copies: 2; 5' overhang 1 nt on both strands
T6 sequence: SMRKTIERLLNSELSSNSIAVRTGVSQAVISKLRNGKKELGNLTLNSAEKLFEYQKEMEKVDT

AcrIIA15 full-length [8] = biological target: T5, AcrIIA15 full-length; assay: as above; conditions: protein: recombinant; tags: C-terminal His6, or His6-Sumo removed by Ulp1; chain copies: 2; 5' overhang 1 nt on both strands
[9] = biological target: T7, SaCas9;AcrIIA15 full-length (Staphylococcus aureus;, UniProt J7RUA5;PDB:8JG9_3 1-1053;1-171, |); assay: cryo-EM; with sgRNA; AcrIIA15 dimer, two SaCas9-sgRNA; Promoter EMSA: 20 mM Tris-HCl pH 7.5, 300 mM NaCl, on ice/4 C, 30 min; SaCas9 EMSA: 20 mM Tris pH 7.5, 200 mM NaCl, 10 mM EDTA, RT; SPR: 10 mM Na2HPO4, 2 mM KH2PO4, 0.3 M NaCl; SEC: 20 mM Tris pH 7.5, 300 mM NaCl; conditions: protein: recombinant;recombinant; tags: His6-Sumo removed by Ulp1;C-terminal His6, or His6-Sumo removed by Ulp1; chain copies: 2;2; blunt
T7 sequence 1: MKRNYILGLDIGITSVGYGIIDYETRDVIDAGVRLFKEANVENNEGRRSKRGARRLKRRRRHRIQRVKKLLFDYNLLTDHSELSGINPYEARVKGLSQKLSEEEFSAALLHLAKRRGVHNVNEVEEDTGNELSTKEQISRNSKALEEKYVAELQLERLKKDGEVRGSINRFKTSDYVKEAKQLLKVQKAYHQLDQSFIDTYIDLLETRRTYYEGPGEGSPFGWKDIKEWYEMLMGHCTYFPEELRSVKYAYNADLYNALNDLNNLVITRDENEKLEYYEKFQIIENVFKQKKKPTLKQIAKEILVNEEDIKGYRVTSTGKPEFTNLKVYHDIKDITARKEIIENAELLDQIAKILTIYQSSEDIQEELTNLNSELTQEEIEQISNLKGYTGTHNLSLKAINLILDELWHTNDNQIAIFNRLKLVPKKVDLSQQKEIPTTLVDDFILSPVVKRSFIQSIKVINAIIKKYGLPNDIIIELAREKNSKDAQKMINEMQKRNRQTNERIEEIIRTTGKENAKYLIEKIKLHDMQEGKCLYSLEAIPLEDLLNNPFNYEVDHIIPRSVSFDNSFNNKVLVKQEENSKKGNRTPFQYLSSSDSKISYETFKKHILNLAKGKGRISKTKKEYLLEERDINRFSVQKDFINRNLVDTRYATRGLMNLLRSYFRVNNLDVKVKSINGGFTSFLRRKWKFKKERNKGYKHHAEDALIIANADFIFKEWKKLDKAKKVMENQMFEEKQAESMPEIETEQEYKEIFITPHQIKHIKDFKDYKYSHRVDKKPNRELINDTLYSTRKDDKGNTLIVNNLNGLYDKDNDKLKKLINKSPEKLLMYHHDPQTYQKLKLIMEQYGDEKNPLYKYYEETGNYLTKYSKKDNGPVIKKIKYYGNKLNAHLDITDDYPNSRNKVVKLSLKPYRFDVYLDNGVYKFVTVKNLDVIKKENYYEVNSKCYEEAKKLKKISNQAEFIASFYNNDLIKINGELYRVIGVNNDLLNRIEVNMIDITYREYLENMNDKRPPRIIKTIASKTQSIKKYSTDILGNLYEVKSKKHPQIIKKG
T7 sequence 2: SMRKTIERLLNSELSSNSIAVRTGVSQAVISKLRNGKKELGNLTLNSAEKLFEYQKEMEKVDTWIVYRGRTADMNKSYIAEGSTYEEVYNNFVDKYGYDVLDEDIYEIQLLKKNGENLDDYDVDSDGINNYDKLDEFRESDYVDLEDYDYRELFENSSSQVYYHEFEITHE

AcrIIA15 full-length [10] = biological target: T5, AcrIIA15 full-length; assay: EMSA; Promoter EMSA: 20 mM Tris-HCl pH 7.5, 300 mM NaCl, on ice/4 C, 30 min; SaCas9 EMSA: 20 mM Tris pH 7.5, 200 mM NaCl, 10 mM EDTA, RT; SPR: 10 mM Na2HPO4, 2 mM KH2PO4, 0.3 M NaCl; SEC: 20 mM Tris pH 7.5, 300 mM NaCl; conditions: protein: recombinant; tags: C-terminal His6, or His6-Sumo removed by Ulp1; chain copies: 2; blunt

## full-length AcrIIA15 R2A mutant (natural protein)
[1]
  stoichiometry N: 2

## full-length AcrIIA15 (natural protein)
[2]
  stoichiometry N: 2
[3]
  stoichiometry N: 2
[4]
  stoichiometry N: 2
[5]
  stoichiometry N: 2

## N-terminal domain of AcrIIA15 (AcrIIA15^NTD) (domain or fragment)
[6]
  stoichiometry N: 2

B1: Cy3-IR1 (dsDNA)
DNA 1: ATAATTATGACAAATGTCATAGAAAA
DNA 2: TTTTCTATGACATTTGTCATAATTAT
AcrIIA15 R2A/L44A
  binding result: no binding
AcrIIA15 K31A
  binding result: no binding
AcrIIA15 K37A
  binding result: no binding
AcrIIA15 L44A
  binding result: no binding

B2: IR2 (dsDNA)
DNA 1: TGACTTATGACGAACGTCATAATATA
DNA 2: TATATTATGACGTTCGTCATAAGTCA
AcrIIA15 full-length [7]
  Kd: 1.8 ± 0.66 nM

B3: IR1'' (dsDNA)
DNA 1: ATTATGACAAATGTCATAG
DNA 2: TCTATGACATTTGTCATAA
AcrIIA15 NTD
  binding result: binds
AcrIIA15 full-length [8]
  binding result: binds

B4: IR1 (dsDNA)
DNA 1: ATAATTATGACAAATGTCATAGAAAA
DNA 2: TTTTCTATGACATTTGTCATAATTAT
AcrIIA15 full-length [7]
  Kd: 7.49 ± 0.6 nM
[9]
  binding result: binds

B5: IR1 mutant in four base pairs (dsDNA)
DNA 1: ATAATTGTTACAAATGTAACAGAAAA
DNA 2: TTTTCTGTTACATTTGTAACAATTAT
AcrIIA15 full-length [10]
  binding result: no binding
